# Source: patent publication US20160215061A1
# Target: recombinant mouse FcγRIIB expressed in NS0 cells (mouse) (UniProt P08101)
# Test: SPR (Biacore); capture sample on chip, rmFcgRIIB (NSO) injected; reference Herceptin
# recombinant mouse FcγRIIB expressed in NS0 cells (mouse), sequence (P08101 40-207 limits assumed): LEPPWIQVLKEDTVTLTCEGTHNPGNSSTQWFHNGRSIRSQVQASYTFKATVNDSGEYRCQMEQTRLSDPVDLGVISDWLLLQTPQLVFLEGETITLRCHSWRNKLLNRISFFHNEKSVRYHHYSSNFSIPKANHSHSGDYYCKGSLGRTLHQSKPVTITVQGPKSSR
substance,measurement,value
F243A/V264A Fc (SEQ ID NO: 7) (from UniProt P0DOX5 218-448),Fold Increase in RU vs WT IgG1,0.5 fold
